# T1: gulono-γ-lactone oxidase (Rattus norvegicus, UniProt P10867, I85V)
# T1 construct: His tag (pET30a fusion); made in house; host or cells: E. coli Rosetta(DE3), pET30a
# T1 sequence (P10867 1-440 I85V): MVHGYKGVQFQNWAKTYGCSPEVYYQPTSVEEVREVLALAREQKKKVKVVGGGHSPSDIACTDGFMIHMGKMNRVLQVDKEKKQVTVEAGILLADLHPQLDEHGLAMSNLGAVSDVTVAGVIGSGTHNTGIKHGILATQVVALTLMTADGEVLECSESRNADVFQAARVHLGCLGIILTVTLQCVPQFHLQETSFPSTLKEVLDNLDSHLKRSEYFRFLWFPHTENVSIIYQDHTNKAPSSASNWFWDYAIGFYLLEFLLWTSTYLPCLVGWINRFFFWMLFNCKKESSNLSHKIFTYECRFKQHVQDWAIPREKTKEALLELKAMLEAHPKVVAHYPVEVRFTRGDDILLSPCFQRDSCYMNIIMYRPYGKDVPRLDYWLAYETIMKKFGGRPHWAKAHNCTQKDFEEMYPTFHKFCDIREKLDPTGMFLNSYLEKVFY
# B1: GLO: gulono-γ-lactone oxidase, rat glo expressed from pET30a in E. coli Rosetta(DE3), His-Bind purified (protein, UniProt P10867 2-440, looked up)
# L-gulonolactone oxidase: VHGYKGVQFQNWAKTYGCSPEVYYQPTSVEEVREVLALAREQKKKVKVVGGGHSPSDIACTDGFMIHMGKMNRVLQVDKEKKQITVEAGILLADLHPQLDEHGLAMSNLGAVSDVTVAGVIGSGTHNTGIKHGILATQVVALTLMTADGEVLECSESRNADVFQAARVHLGCLGIILTVTLQCVPQFHLQETSFPSTLKEVLDNLDSHLKRSEYFRFLWFPHTENVSIIYQDHTNKAPSSASNWFWDYAIGFYLLEFLLWTSTYLPCLVGWINRFFFWMLFNCKKESSNLSHKIFTYECRFKQHVQDWAIPREKTKEALLELKAMLEAHPKVVAHYPVEVRFTRGDDILLSPCFQRDSCYMNIIMYRPYGKDVPRLDYWLAYETIMKKFGGRPHWAKAHNCTQKDFEEMYPTFHKFCDIREKLDPTGMFLNSYLEKVFY
# modifications: His tag
# Molecular target: T1, gulono-γ-lactone oxidase
# Assay: GLO assay, ascorbic acid from L-gulono-γ-lactone
# Type: biochemical
# Details: His-Bind purified from E. coli; 2.5 mM L-gulono-γ-lactone
# Experimental: GLO activity was assayed according to the procedure described by Nishikimi (Methods in Enzymology, 62:24-30 (1979)). The assay mixture contained, in 1 mL, 50 mM potassium phosphate buffer, pH 7.5, 2.5 mM L-gulono-γ-lactone, 1 mM EDTA, and enzyme. The reaction was initiated by the addition of either substrate or enzyme, and the mixture was incubated with shaking in air for 15 minutes at 37° C. The reaction was stopped by the addition of 0.1 mL 50% trichloroacetic acid, and the precipitated protein was removed by centrifugation. The product ascorbic acid was detected by the method described in Example 9. Briefly, 0.956 mL 2,2′-dipyridyl reagent was added to 0.15 mL of the supernatant solution, and the reaction mixture was incubated at 25° C. for 15 minutes. After 15 minutes, the sample was centrifuged to remove any precipitate, and the absorbance was read at 525 nm. The 2,2′-dipyridyl reagent contained 0.056 mL ortho-phosphoric acid (85%), 0.75 mL 0.5% 2,2′-dipyridyl (prepared in hot H2O), and 0.15 mL 1% FeCl3 (in H2O). Standards of ascorbic acid (1.0 μg to 10 μg) were run in parallel with the biological samples for a standard curve. One unit is defined as the quantity that catalyzes the formation of 1 nmol of L-ascorbic acid in 1 minute under the conditions described above. Specific activity is expressed as units per mg of protein ([…]/min/mg).
molecule,measurement,value
B1,Specific Activity (purified protein),0.926 nmol/min/mg
